Measured values: patent publication US20250034594A1, “RNA-GUIDED GENOME RECOMBINEERING AT KILOBASE SCALE” (THE BOARD OF TRUSTEES OF THE LELAND STANFORD JUNIOR …, priority 2021, published 2025)

B1: SSAP_164: SEQ ID NO: 333; Clostridium fimetarium (protein, listed as Clostridium fimetarium)
chain: ETIDIKQELASQAQTDSKKEVKLTKAMSIAEMIKAMMPEIKRALPSMITPERFTRIALSALNNTPELQACTPMSFISALLNAAQLGLEINSPLGHAYLIPYKNKGVLECQFQIGYLGLIALAYRNELMQTIQAQCVYENDEFLYEYGLNPKLVHRPATSDRGEPVFFYGLFKMINSGFGFCVMSKQEMDEFARTYSKGLASSFSPWKTSYNEMAKKTVIKQALKYAPIKTDFQKALSTDESIKYAISEDMTEAVNEIVSQNTEVA
B2: SSAP_82: SEQ ID NO: 251 (protein)
chain: ENEVMTQDQAYEVASPFGSSENFQKLFDIGKMFASSSLVPDRYRGKPMDCTIAVDMANRMGVSPMMVMQQLYVVKGNPQWSGQACMSLIRGSSEYKNVRPVYTGKKGEDSWGCYIEAEKKKTGEIVKGTEVTIAMAKAEGWYSKKDKYGNETSKWQTMPELMLAYRAAAFFARVYIPNALMGCAVEGEAEDIMKRAITAEDPFKEDAK
B3: SSAP_291: SEQ ID NO: 460; Nocardia pseudobrasiliensis (protein, listed as Nocardia pseudobrasiliensis)
chain: SSIANAANASELTPASIVNRYRDDIAAVLPPKLQARIDRWLRLAIGAVNSNADLVDRVRADQGASMMQTLMKCAALGHEPGSGLFHLVPKGPRIEGWEDYKGVLQRIDRSGVYARVVVEVVHANDDYAYDPNLDDRPQHKRAAADRGEPVSAYAYAVYPNGAVTAVAEATPELIAASKAKARGADNASSPWRAPGAPMHRKVAIRQLEKFVATSAEDMREVAVRNAAPDVEDAPADYYQEP
B4: SSAP_103: SEQ ID NO: 272; Zymobacter palmae (protein, listed as Zymobacter palmae)
chain: TNTVQQQAPQQDQLAQQLQQASGNTPQKKPMPSTIQGMLKDDRFKTQIARALPKHVTPERIMRIALTEINKTPKLKECDPIGLFGSIVQSAQLGLELGGALGHAYLVPYGKQAQFIIGYRGMIDLARRSGQMVSLQAHTVHENDEFNFEYGLNENLRHVPARGERGPMIAVYAVAKLVGGGHQIEVMWKEDVDAVRKSSKAGGSGPWRDHYEEMAKKTAIRRLFKYLPVSVEMQRAVSLDEQAEEGVQDNNVFDGDYTVAEH
B5: SSAP_72: SEQ ID NO: 241 (protein)
chain: ATNSSLKNQLSKKENVTIGNTMQGLLNNPKMKKRFEEILDKKAPQYMSSILNLYNGDTSLQKCEPMSVLSSSMIAATMDLPVDKNLGYAWIVPYKNKAQFQMGYKGYIQLALRTGQYKHINAIEIHEGELVNWNPLTEELEIDFTKKESDKIIGYAGYFELLNGFKKSTYWTKTQIENHRKKFSKSDYGWNKDFDAMAIKTVIRNMLSKWGILSIEMQNAYTADENIIKDSFIDDSENVSANIEDLVEADYTVNQDSLESKEEFEGTPLE
B6: SSAP_277: SEQ ID NO: 446; Nocardia terpenica (protein, listed as Nocardia terpenica)
chain: SSIAAAAESAEVTPASIINKYRDDIATVLPPKLRERIDRWIRLAIGAVNSNPELISRVRADQGASMMQALMKCAALGHEPGSGLFHLVPKGSRIEGWEDYKGILQRIDRSGVYARTVIGVVYANDEYSYDQNVDERPRHVRATGDRGEPISSYAYAVYPSGAITTVAEATPEQIASSKSKARGADNAASPWRAPGAPMHRKVAVRLLEKHVATSAEDRREPISRSAANDVVIDATADYYQEP
B7: SSAP_58: SEQ ID NO: 227; Pirellula sp. SH-Sr6A (protein, listed as Pirellula sp.)
chain: SEATKEAKPETAIAKKPNGIKDWLKSDALKTQIASVAPKHMAPERVMRIALNAVSRTPKLADCTPESFMRCLLDLSSWGLEPDGRHAHLIPYGTECTLVLDYKGLVTLAYRSGWVKKIHADVVFEGDIFVYSLGTVCQHIPWEFRDDANKPEHKGHFRAAYCVVTMADGIEKHEVMTASEIDAIKAKSRSGNSGPWKDHYTEMAKKTVYRRASKWLPLSPEQADAMERDDDRIIDAVSVAVTQRLSKAAMPLIGANETGDTE
B8: SSAP_232: SEQ ID NO: 401; Lactococcus fujiensis JCM 16395 (protein, listed as Lactococcus fujiensis)
chain: KSAPVQARFQEVLGKKSSGFVSSLLTVVNNNNLLKRATPDSIMTAAMKAATLDLPIEPSLGFAYIIPYGQEAQFQIGYKGLIQLALRSGQITGLNSGIVYKSQFISYDPLFEELEIDFMQPEDEVVGYFASMKLSNGFMKVVYWTKARVENHKKRFSKAGAKSPWATDFDAMAQKTVLKAMISKFAPLSQEMQIAVIADNESETLEPKDVTPEQPLISIDEPKENENSQSQISIPEDQAPQQENEEFVEELFPVGQA
B9: SSAP_65: SEQ ID NO: 234 (protein)
chain: TQDLATAIADQQPAQRRTAFDLVESMRGELHKALPEHASIDNFLRLALTELKMNPQLGNCSGESLLGALMTAARVGLEVGGPLGQFYLTPRRLKRDGWAVVPIVGYRGLITLARRAGVGQVNAVVVHEGDTFREGASSERGFFFDWEPAVERGKPVGALAAARLAGGDVQHRYLSLAEVHERRDRGGFKDGSNSPWATDYDAMVRKTALRALVPLLPQSTALSFAVQADEQVQRYDAGDIDIPALDETDTEDTK
B10: SSAP_250: SEQ ID NO: 419; Streptococcus pseudoporcinus (protein, listed as Streptococcus pseudoporcinus)
chain: ANQLTVVNTLQSDAVKEKFEAVMGEKANGFVSSVLSVVTNNNLLAKADFNSVYTSAMKAAVLDLPVEPSLGMAYIVPYKGKAQFQIGYKGLIQLAQRSGKVTKLNSGKIYKGQFKSYNALSEELDIDDIYTPKEDEEVVGYFGYMKLSNGFEKITYWTKERVEKHGKKYSQSYDSKFSPWQTNFDAMAEKTVLKSILSTYAPLTIEMQNANDFDNGKNTGIEPLEVKDVTPENDNESLLSDLLEDEPSVDAETGEIMENTELDLDYGSINAK

What was measured:
Type in all cases: cell-based
[1] = test system: gene editing with Cas9; test: Screen of 322 new SSAP proteins, gene editing activity with Cas9 (Table 5); parameters: Cas9 with SSAP activity: scale not given here
Outline: (§1)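 Synthetic SSAP candidates, identified computationally, were tested in editing screens using both Cas9 and dCas9.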

[2] = test system: gene editing with dCas9; test: Screen of 322 new SSAP proteins, gene editing activity with dCas9 (Table 5); parameters: dCas9 with SSAP activity: scale not given here
Outline: as §1

[3] = test system: gene editing with Cas9 and dCas9; test: Screen of 322 new SSAP proteins, activity across all experiments (Cas9 and dCas9, Table 5); parameters: scale not given here
Outline: as §1

Molecule	Cas9 with SSAP activity [1]	Cas9 with SSAP activity (normalized) [1]	dCas9 with SSAP activity [2]	dCas9 with SSAP activity (normalized) [2]	Activity across all experiments [3]
B1	−2.221	−0.998	−4.310	−0.557	−3.266
B2	−4.284	−0.776	−4.498	−0.873	−4.391
B3	−4.531	−1.341	−4.458	−1.272	−4.494
B4	−0.682	−0.190	−4.540	−0.705	−2.611
B5	0.397	0.895	0.705	1.131	0.551
B6	−1.480	−0.437	−4.435	−0.734	−2.958
B7	−1.710	−0.437	−4.326	−0.647	−3.018
B8	−1.056	−0.259	−4.457	−0.721	−2.757
B9	0.198	0.190	−4.569	−0.746	−2.185
B10	−4.531	−1.341	−4.273	−1.117	−4.402
